Columns and labels:
in vivo = test: in vivo; parameters: species or system mice; details: male, athymic nude (outbred) CrTac:NCr-Foxn1nu, mouse, iv, 11.1 MBq, total radioactivity, Activity concentration
PC-3 tumor–bearing mice = details: mouse, in vivo

`CC(C)C[C@H](NC(=O)C[C@H](O)[C@H](CC(C)C)NC(=O)[C@H](Cc1c[nH]cn1)NC(=O)CNC(=O)[C@@H](NC(=O)[C@H](C)NC(=O)[C@H](Cc1c[nH]c2ccccc12)NC(=O)[C@H](CCC(N)=O)NC(=O)[C@@H](Cc1ccccc1)NC(=O)CCOCCOCCOCCOCCNC(=O)CN1CCN(CC(=O)O)CCN(CC(=O)O)CCN(CC(=O)O)CC1)C(C)C)C(N)=O` [^90Y-DOTA-AR, metal not drawn] showed a tissue uptake at 1 h (in vivo; PC-3 tumor) of 3.62 ± 0.95 %ID/g, a tissue uptake at 4 h (in vivo; PC-3 tumor) of 2.92 ± 0.57 %ID/g and a tissue uptake at 24 h (in vivo; PC-3 tumor) of 0.45 ± 0.04 %ID/g. It also gave a tissue uptake at 48 h (in vivo; PC-3 tumor) of 0.1 ± 0.05 %ID/g, a tissue uptake at 1 h (in vivo; kidney) of 1.76 ± 0.61 %ID/g and a tissue uptake at 4 h (in vivo; kidney) of 0.78 ± 0.14 %ID/g. The tissue uptake at 24 h (in vivo; kidney) was 0.17 ± 0.02 %ID/g, the tissue uptake at 48 h (in vivo; kidney) was 0.07 ± 0.01 %ID/g and the tissue uptake at 1 h (in vivo; liver) was 0.21 ± 0.05 %ID/g. The tissue uptake at 4 h (in vivo; liver) was 0.12 ± 0.06 %ID/g, the tissue uptake at 24 h (in vivo; liver) was 0.04 ± 0.01 %ID/g and the tissue uptake at 48 h (in vivo; liver) was 0.02 %ID/g. For the same compound, the “Radiation dose to kidney” value (PC-3 tumor–bearing mice) was 0.06 ± 0.01 Gy/MBq and the “Radiation dose to kidney, range” value (PC-3 tumor–bearing mice) was 0.05–0.08 Gy/MBq.
